# Source: ChEMBL document CHEMBL2074118, “Effects of tacrolimus and cyclosporin A on peptide transporter PEPT1 in Caco-2 cells” (Pharm Res, 2001)
# B1: Solute carrier family 15 member 1 (Homo sapiens), P46059 (protein)
# chain: MGMSKSHSFFGYPLSIFFIVVNEFCERFSYYGMRAILILYFTNFISWDDNLSTAIYHTFVALCYLTPILGALIADSWLGKFKTIVSLSIVYTIGQAVTSVSSINDLTDHNHDGTPDSLPVHVVLSLIGLALIALGTGGIKPCVSAFGGDQFEEGQEKQRNRFFSIFYLAINAGSLLSTIITPMLRVQQCGIHSKQACYPLAFGVPAALMAVALIVFVLGSGMYKKFKPQGNIMGKVAKCIGFAIKNRFRHRSKAFPKREHWLDWAKEKYDERLISQIKMVTRVMFLYIPLPMFWALFDQQGSRWTLQATTMSGKIGALEIQPDQMQTVNAILIVIMVPIFDAVLYPLIAKCGFNFTSLKKMAVGMVLASMAFVVAAIVQVEIDKTLPVFPKGNEVQIKVLNIGNNTMNISLPGEMVTLGPMSQTNAFMTFDVNKLTRINISSPGSPVTAVTDDFKQGQRHTLLVWAPNHYQVVKDGLNQKPEKGENGIRFVNTFNELITITMSGKVYANISSYNASTYQFFPSGIKGFTISSTEIPPQCQPNFNTFYLEFGSAYTYIVQRKNDSCPEVKVFEDISANTVNMALQIPQYFLLTCGEVVFSVTGLEFSYSQAPSNMKSVLQAGWLLTVAVGNIIVLIVAGAGQFSKQWAEYILFAALLLVVCVIFAIMARFYTYINPAEIEAQFDEDEKKNRLEKSNPYFMSGANSQKQM
# Substrate: CN(CC(=O)O)C(=O)CN
# Assay: TP_TRANSPORTER: uptake in Caco-2 cells
# Assay type: functional, cell-based
protein,measurement,value
B1,Km,830 µM
